Results from publication doi:10.1101/2025.11.17.688803.

Target: endogenous LRBA of mouse embryonic fibroblasts (mouse (endogenous in MEFs)) (UniProt Q9ESE1)
Assay: SEC

stoichiometry N: 2
Substance: endogenous LRBA of mouse embryonic fibroblasts (from UniProt Q9ESE1 1-2856) (natural protein)
